B1: SNAP91 (parent)
chain: FAQPMMRPPFGAAAVPGTQLSPSP
B2: ZC3H15 (parent)
chain: ENLFTGEDLDELEEELNTLDLEE

Variants of: B1
Assay: protein stability index of a GFP-peptide fusion (GPS, HEK-293T) (PSI 1-6); higher = more stable
Conditions: c terminus: a fixed tail appended
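Note: lentivirally expressed fusions sorted by FACS into six bins by GFP to DsRed ratio, PSI derived from sequencing read proportions per bin multiplied by bin number.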

Protein stability index of substitutions, site by site:
F1: A 4.67 | L 3.59 | K 4.28 | H 4.02 | C 3.3 | E 4.68 | D 4.55 | G 4.5 | I 4.02

Variants of: B2
Assay: as above
Conditions: c terminus: native

Protein stability index, by site and new letter:
D8: S 5.14 | P 4.24 | R 5.05 | C 4.99 | H 4.66 | Q 4.58 | N 3.93 | W 4.09 | K 4.39 | I 4.13 | G 5.03 | E 4.58 | T 4.25 | V 4.83 | L 4.72
E15: K 5.54 | L 3.29 | M 3.88 | F 3.37 | V 3.09 | H 4.29 | P 3.14 | D 3.74 | S 5.18 | A 4.94 | W 4.08 | G 5.2 | Y 3.4 | R 5.29 | T 5.01 | I 4.04 | Q 4.93 | N 4.61
L21: T 2.68 | K 2.71 | Y 3.62 | S 2.58 | E 4.73 | C 2.13 | H 3.31 | G 4.82 | V 2.59 | R 3.48 | D 4.99 | F 3.33 | I 2.25 | Q 4.88 | N 1.1 | A 2.44
E11: F 3.64 | K 4.83 | P 4.06 | H 4.58 | Q 4.89 | S 4.93 | V 4.1 | M 4.25 | R 4.98 | C 4.52 | I 4.71 | G 5.13 | A 3.93 | L 4.3 | W 4.67 | N 4.58 | T 4.9 | D 4.58
L12: M 3.43 | G 4.72 | C 4.9 | K 4.01 | E 4.79 | P 4.82 | S 4.59 | D 5.07 | I 4.14 | Q 3.69 | F 3.84 | A 3.23 | Y 1.93 | N 4.38 | R 3.52
L19: K 4.95 | I 3.98 | D 5.17 | A 4.58 | E 5.17 | S 4.91 | G 4.69 | V 3.86 | Q 4.27 | Y 1.99 | H 3.85 | T 4.7 | P 4.67 | N 4.52 | W 1.11 | F 2.97
D20: T 5.39 | N 4.67 | P 3.12 | H 4.87 | W 4.2 | C 5.38 | K 5.11 | V 4.99 | G 5.35 | Y 5.22 | R 5.48 | M 3.71 | E 4.52 | S 5.25 | A 4.55 | F 4.85
T5: N 4.41 | I 4.05 | H 4.56 | E 4.65 | C 5.08 | Y 4.25 | S 4.32 | V 3.27 | M 4.69 | W 4.51 | G 4.5 | F 4.19 | P 4.66
E14: G 3.47 | P 3.42 | A 5.01 | I 3.3 | D 4.74 | T 4.12 | Q 4.56 | K 5.14 | Y 4.33 | N 4.37 | W 3.7 | M 3.55 | V 3.65 | S 4.85 | H 5.05 | F 2.95 | C 3.99
F4: R 4.67 | H 4.55 | N 4.74 | S 5.13 | Q 4.69 | M 4.5 | W 4.5 | D 5.08 | P 5.03 | G 4.83 | E 4.31 | V 3.57 | L 4.58 | K 3.66 | I 5.19 | Y 4.6
T18: D 4.24 | Q 5.2 | P 2.54 | N 5.31 | A 4.22 | R 4.26 | C 4.8 | H 4.81 | K 5.53 | V 3.58 | W 3.31 | S 5.05 | L 4.96
L16: Q 2.69 | G 4.11 | W 2.9 | E 3.7 | S 3.82 | F 4.87 | P 3.32 | A 3.48 | V 4.22 | H 4.2 | T 4.77 | R 3.77 | N 4.12 | M 4.78 | K 3.62
E7: K 4.01 | S 5 | H 4.66 | A 4.55 | P 4.16 | M 4.69 | V 3.99 | N 4.68 | D 4.93 | C 4.38 | L 3.98 | F 4.42 | Y 4.23 | I 4.49 | Q 4.11 | R 4.69 | W 4.54
E22: A 5.34 | N 5.37 | V 5.55 | L 5.79 | M 5.37 | I 5.44 | R 5.7 | G 5.33 | H 5.94 | P 5.17 | C 5.58 | K 5.67 | F 5.82 | Q 5.67 | W 5.39 | S 5.84 | Y 5.5 | T 5.41 | D 5.75
G6: A 4.82 | T 4.81 | H 4.37 | M 4.68 | S 4.88 | N 4.83 | R 4.51 | D 4.93 | K 4.79 | F 4.3 | Y 4.58 | L 4.85 | I 4.2 | Q 4.41 | V 4.28
L9: N 4.1 | I 5 | F 3.48 | P 4.55 | T 4 | M 4.69 | V 4.68 | Y 2.68 | G 4.03 | H 3.51 | C 4.43 | R 3.18 | W 3.09 | E 4.54 | Q 3.82 | K 2.38 | D 3.87 | S 4.49 | A 4.25
D10: H 4.89 | A 5.27 | G 4.73 | N 5.33 | L 4.28 | I 4.73 | P 5 | Y 3.33 | M 3.89 | R 5.07 | E 5.05 | K 4.35 | Q 4.89 | F 4.12 | W 4.02 | V 5.1
N17: F 2.5 | Y 3.79 | Q 4.06 | V 3.5 | D 4.65 | R 5.04 | I 3.3 | K 5.18 | T 3.66 | C 3.64 | A 4.7 | E 4.89 | H 3.71 | M 3.5 | W 2.69 | S 4.45
E23: G 5.05 | W 5.54 | K 5.61 | N 5.51 | V 5.29 | A 5.96 | L 5.73 | H 5.42 | Y 5.58 | R 3.26 | S 5.89 | D 5.47 | I 5.81 | F 5.07 | M 4.61 | Q 4.97 | P 5.67
E13: G 3.77 | I 4.51 | V 4.83 | W 3.48 | L 4.44 | F 3.81 | R 4.37 | C 5.19 | Q 5.06 | P 3.56 | T 4.6 | S 5.36 | H 3.82 | A 5.59 | K 4 | Y 4.11 | D 4.46 | N 5.1

From the supplement of paper PMC10567573
